Test results as given in publication PMC3741120, “A Sperm–Plasma β-N-Acetyl-D-Hexosaminidase Interacting with a Chitinolytic β-N-Acetyl-D-Hexosaminidase in Insect Molting Fluid” (PLoS ONE, 2013).

What was measured:
purified protein [1] = substrate: CC(=O)N[C@H]1[C@H](Oc2ccc([N+](=O)[O-])cc2)O[C@H](CO)[C@H](O)[C@@H]1O; test: purified protein; assay type: biochemical, Ostrinia furnacalis; details: Britton-Robinson buffer (pH of kinetics not given), 25°C, 30 min
purified protein [2] = substrate: CC(=O)N[C@H]1[C@H](Oc2ccc([N+](=O)[O-])cc2)O[C@H](CO)[C@@H](O)[C@@H]1O; test: purified protein; assay type: biochemical, Ostrinia furnacalis; details: Britton-Robinson buffer (pH of kinetics not given), 25°C, 30 min

B1: OfHex3 (Ostrinia furnacalis) (protein)
chain: NENEIKDPTPIVYEPSWVFKCIPNVGCQRAAHPQSMMTTNSSHVFYDSIDLCRTVCGRFGGIWPKPLTAGLSMQTVQMHPTHLRYDLSDVPAEARELIAQMTQVASSNLLAECRGNVTEVVDTPVVVYLVVTSENLDLTWDTDEKYDLDVQTKNQKVSVTITAATVYGARHGLETFTQLVTADRPEYSDQTRCALRVISGARIKDYPAYRHRGLVLDTSRHFIPMKDIKRTIDGMAASKLNVFHWHVTDSHSFPLESTRVPQFTRYGAYSSSEIYSAEEVRQLIKYAQIRGVRVVIEIDSPAHAGNGWQWGQDYGFGDLAVCVNTEPWRGLCIQPPCGQLNPANPTMYRVLRNLYKDLAEALPKPALFHMGGDEVFFPCWNSSEQIRAYMQEKGLNTTTEGFLRLWSEFHETILSIWDEELKAIGTDAQPVILWSSALTKSNYVQRFLNKDRYVIEVWEPLDSPLLMELLRLGYRTISVPKDVWYLDHGFWGSTKFSNWRRMYAYILPKSQHMLGGEVAMWSEYVDKEVLDTRIWPRAAAVAERLWADPMSTASAAEPRLQRFRSRLQARGLRPDAMSPAWCEQHDGRCL
notes: mature protein without signal peptide (residues 1-18 removed; ORF 609 residues); C-terminal 6xHis, N-terminal alpha-factor secretion signal; Pichia pastoris GS115; glycosylated, 75 kDa on SDS-PAGE
Km (purified protein [1]): 2673 µM
kcat (purified protein [1]): 5.63 s⁻¹
kcat/Km (purified protein [1]): 2110 M⁻¹ s⁻¹
Km (purified protein [2]): 1627 µM
kcat (purified protein [2]): 27.7 s⁻¹
kcat/Km (purified protein [2]): 17000 M⁻¹ s⁻¹
